Substitutions are numbered along the chain they refer to.

Holding throughout (settings): tags: 3xFlag, SV40 NLS
For one data set, the target named is T1, PAH2 Left TAL-PBx (synthetic construct).
T1 chain: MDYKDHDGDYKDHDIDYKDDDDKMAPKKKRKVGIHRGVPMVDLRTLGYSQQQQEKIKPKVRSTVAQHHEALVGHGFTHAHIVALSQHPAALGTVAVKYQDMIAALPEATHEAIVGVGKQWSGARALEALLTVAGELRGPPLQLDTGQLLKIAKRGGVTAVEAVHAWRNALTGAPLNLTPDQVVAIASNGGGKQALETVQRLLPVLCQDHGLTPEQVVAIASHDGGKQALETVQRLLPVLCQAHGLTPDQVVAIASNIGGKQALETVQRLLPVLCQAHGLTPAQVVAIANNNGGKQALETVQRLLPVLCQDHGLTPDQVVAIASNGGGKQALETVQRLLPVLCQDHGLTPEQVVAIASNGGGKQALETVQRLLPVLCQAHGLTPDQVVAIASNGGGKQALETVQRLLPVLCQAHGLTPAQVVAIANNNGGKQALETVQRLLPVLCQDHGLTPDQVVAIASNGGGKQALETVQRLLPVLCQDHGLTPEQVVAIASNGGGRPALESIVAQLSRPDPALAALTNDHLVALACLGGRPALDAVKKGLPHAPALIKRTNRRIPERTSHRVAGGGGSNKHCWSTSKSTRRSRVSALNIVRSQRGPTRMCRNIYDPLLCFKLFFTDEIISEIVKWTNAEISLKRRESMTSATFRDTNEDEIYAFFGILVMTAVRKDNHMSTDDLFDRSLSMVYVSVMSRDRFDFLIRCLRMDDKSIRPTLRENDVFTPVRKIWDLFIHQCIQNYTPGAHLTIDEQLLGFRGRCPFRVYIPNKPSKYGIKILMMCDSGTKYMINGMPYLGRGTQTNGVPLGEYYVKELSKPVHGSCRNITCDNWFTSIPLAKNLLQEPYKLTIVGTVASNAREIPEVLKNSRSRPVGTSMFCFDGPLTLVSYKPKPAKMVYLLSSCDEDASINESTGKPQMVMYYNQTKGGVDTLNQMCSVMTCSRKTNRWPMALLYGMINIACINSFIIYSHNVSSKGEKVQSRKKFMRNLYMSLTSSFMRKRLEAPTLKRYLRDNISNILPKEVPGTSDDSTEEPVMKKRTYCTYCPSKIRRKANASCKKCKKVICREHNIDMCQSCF
The data set is described as follows: cell_activity; left only.

The next data set deals with T2, PAH2 Right TAL-PBx (synthetic construct).
T2 chain: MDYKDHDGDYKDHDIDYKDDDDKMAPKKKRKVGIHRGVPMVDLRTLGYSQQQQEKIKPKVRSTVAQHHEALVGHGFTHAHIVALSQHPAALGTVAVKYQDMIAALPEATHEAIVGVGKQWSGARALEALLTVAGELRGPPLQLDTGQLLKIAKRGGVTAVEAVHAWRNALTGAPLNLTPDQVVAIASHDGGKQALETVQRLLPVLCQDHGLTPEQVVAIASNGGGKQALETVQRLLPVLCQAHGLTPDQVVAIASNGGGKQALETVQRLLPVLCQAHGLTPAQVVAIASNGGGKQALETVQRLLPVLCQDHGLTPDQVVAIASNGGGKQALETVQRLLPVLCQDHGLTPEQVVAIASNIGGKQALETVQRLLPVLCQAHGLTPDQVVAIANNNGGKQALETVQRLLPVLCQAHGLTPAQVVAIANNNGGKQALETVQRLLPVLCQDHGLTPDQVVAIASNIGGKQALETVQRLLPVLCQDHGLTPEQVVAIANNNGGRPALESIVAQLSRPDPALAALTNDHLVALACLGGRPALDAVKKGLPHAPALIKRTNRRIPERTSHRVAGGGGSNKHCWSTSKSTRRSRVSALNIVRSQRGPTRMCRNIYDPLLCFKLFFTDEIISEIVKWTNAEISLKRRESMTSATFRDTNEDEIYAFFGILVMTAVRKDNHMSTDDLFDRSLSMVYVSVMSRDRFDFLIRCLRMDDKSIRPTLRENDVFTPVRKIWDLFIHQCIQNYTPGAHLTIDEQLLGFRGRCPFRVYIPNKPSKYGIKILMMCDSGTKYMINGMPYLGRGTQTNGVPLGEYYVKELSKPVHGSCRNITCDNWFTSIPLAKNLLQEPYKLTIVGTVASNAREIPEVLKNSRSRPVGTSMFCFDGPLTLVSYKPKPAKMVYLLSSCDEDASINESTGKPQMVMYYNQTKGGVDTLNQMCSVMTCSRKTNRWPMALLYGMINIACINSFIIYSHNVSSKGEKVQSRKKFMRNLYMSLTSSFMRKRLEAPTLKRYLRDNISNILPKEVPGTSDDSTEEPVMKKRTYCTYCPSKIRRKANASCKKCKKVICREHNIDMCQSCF
The data set is described as follows: cell_activity; right only.

The target in another data set is T3, PAH3 Left TAL-PBx (synthetic construct).
T3 chain: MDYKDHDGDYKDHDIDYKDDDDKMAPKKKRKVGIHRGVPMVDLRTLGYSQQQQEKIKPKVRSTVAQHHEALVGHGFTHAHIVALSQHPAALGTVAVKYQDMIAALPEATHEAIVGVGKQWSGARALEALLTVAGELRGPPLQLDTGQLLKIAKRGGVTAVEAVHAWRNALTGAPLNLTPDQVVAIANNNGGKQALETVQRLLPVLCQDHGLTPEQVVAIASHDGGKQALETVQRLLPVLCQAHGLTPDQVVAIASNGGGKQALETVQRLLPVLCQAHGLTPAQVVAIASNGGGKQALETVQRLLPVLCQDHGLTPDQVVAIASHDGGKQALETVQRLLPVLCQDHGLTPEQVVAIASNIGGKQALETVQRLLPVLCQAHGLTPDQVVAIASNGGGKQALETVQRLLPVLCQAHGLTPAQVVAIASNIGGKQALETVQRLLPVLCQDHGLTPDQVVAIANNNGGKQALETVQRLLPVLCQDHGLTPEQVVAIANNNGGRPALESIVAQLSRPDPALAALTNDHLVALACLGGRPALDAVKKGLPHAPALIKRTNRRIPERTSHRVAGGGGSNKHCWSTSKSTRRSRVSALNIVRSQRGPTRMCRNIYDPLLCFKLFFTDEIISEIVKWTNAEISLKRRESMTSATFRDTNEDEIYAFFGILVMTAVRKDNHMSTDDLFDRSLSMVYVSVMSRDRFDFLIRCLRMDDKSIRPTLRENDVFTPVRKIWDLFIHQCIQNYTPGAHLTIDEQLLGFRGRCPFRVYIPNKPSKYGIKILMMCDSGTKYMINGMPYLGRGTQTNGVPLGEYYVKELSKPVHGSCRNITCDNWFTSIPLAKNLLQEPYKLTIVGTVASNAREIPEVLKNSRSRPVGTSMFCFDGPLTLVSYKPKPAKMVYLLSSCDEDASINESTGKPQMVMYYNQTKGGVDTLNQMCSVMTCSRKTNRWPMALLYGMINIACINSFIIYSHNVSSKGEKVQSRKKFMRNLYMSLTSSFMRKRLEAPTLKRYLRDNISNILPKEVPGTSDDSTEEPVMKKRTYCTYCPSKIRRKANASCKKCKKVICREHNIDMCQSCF
The experiment in a line: cell_activity; left only.

Another data set has as its target T4, PAH3 Right TAL-PBx (synthetic construct).
T4 chain: T1 chain with H222N, D223G, G325I, N392H, G393D, N425S, N427I, N460H, G461D, G495I
The data set is described as follows: cell_activity; right only.

B1: PAH2 target (dsDNA)
DNA 1: TTCAGTTTGTTATATATGTGTCTATTAAGTTAGATTGTGAGCTCCTAAAAGA
DNA 2: TCTTTTAGGAGCTCACAATCTAACTTAATAGACACATATATAACAAACTGAA
On to B1, for which the activity with PAH2 Left TAL-PBx was found to be 8.8 % GFP+; with PAH2 Right TAL-PBx it was 7 % GFP+.

B2: PAH3 target (dsDNA)
DNA 1: TGCTTCATAGGGTAGTTCTAAAGATTAAATCACTTAATGCATGTGATCTAAA
DNA 2: TTTAGATCACATGCATTAAGTGATTTAATCTTTAGAACTACCCTATGAAGCA
Turning to B2, the values for the activity with PAH3 Left TAL-PBx and with PAH3 Right TAL-PBx were 6.8 % GFP+ and 5.7 % GFP+, respectively.

The values above are taken from patent US20240392262A1, “TRANSPOSASE AND USES THEREOF” (Poseida Therapeutics, Inc., published 2024).
